Test results as given in patent publication US20160223529.

Protein	HCV protease activity (quenched fluorescent HCV substrate) (SH3^pep-EGFP-PDZ^pep)	TVMV protease activity (degradation of fluorogenic TVMV substrate peptide) (Calmodulin)
TVMV-PDZ^dom with C-terminal HCV-inducible AI-domain (protein) SGGSGGSMEIRVRVEKDPELGFSISGGVGGRGNPFRPDDDGIFVTRVQPEGPASKLLQPGDKIIQANGYSFINIEHGQAVSLLKTFQNTVELIIVREVSSGGRGGSGGSGGSGGSGGSGGSSKALLKGVRDFNPISACVCLLENSSDGHSERLFGIGFGPYIIANQHLFRRNNGELTIKTMHGEFKVKNSTQLQMKPVEGRDIIVIKMAKDFPPFPQKLKFRQPTIKDRVCMVSTNFQQKSVSSLVSESSHIVHKEDTSFWQHWITTKDGQCGSPLVSIIDGNILGIHSLTHTTNGSNYFVEFPEKFVATYLDAADGWCKNWKFNADKISWGSFILWEDAPESGGDEMEECASHLGSGREYVRFAPGSTHHHHHH	resulting in reciprocal cleavage of the TVMV and HCV protease cleavage sites, thereby more fully activating both proteases	
TVMV-AI-CalmodulinBinder (protein) SKALLKGVRDFNPISACVCLLENSSDGHSERLFGIGFGPYIIANQHLFRRNNGELTIKTMHGEFKVKNSTQLQMKPVEGRDIIVIKMAKDFPPFPQKLKFRQPTIKDRVCMVSTNFQQKSVSSLVSESSHIVHKEDTSFWQHWITTKDGQCGSPLVSIIDGNILGIHSLTHTTNGSNYFVEFPEKFVATYLDAADGWCKNWKFNADKISWGSFILWEDAPEDFMSGLVPRGVGREYVRFAPRWKKNFIAVSAANRFKKISSSGAL		releasing inhibition of the TVMV protease by the autoinhibitor peptide
HCV-SH3^dom with C-terminal TVMV-inducible AI-domain (protein) SMSTSGSGGAEYVRALFDFNGNDEEDLPFKKGDILRIRDKPEEQWWNAEDSEGKRGMIPVPYVEKYRPASASVSALIGGRGGSGGSGGSGGSGGSGGSAKGSVVIVGRINLSGDTAYSQQTRGAAGIAATSATGRDKNQVDGEVQVLSTATQSFLATCVNGVCWTVYHGAGSKTLAGPKGPITQMYTNVDQDLVGWPAPPGARSMTPCTCGSSDLYLVTRHADVIPVRRRGDSRGSLLSPRPVSYLKGSSGGPLLCPSGHVVGIFRAAVCTRGVAKAVDFIPVESMETTMRGGGGSGGETVRFQSGGSGGDELILCPLDLGGSGGTGHHHHHH	resulting in reciprocal cleavage of the TVMV and HCV protease cleavage sites, thereby more fully activating both proteases	
